Strand notation (5' to 3'): a small letter for the sugar, then the base; units joined by * are phosphorothioate-linked, units joined directly phosphodiester-linked; [ ] holds rarer units or linkages, { } end groups; capitals alone tell only the bases. m = 2'-O-methyl; r = 2'-OH (RNA)
How the values were obtained:
TTR mRNA = TTR mRNA knockdown (quantitative PCR) in primary human hepatocytes treated with LNPs; format: cell-based; conditions: PHH; LNP dose 300 ng mRNA cargo; gRNA:mRNA 1:2; 96 h; biological triplicates; vs untreated control
Protocol: In one experiment, PHH were cultured and treated with LNPs comprising Cas9 mRNA (SEQ ID NO:1) and a gRNA of interest (See FIG. 29, Table 36), as described in Example 4. The LNPs were prepared using the cross-flow procedure described above and purified and concentrated using PD-10 columns and Amicon centrifugal filter units, respectively. The LNPs were formulated with an N:P ratio of 6.0 and contained Lipid A, Cholesterol, DSPC, and PEG2k-DMG in a 50:38:9:2 molar ratio, respectively. The LNPs comprised a gRNA:mRNA ratio of 1:2, and the cells were treated at a dose of 300 ng (with respect to the amount of mRNA cargo delivered).
(§1) Ninety-six (96) hours following LNP treatment (with biological triplicates for each condition), mRNA was purified from PHH cells using the Dynabeads mRNA DIRECT Kit (ThermoFisher Scientific) according to the manufacturer's protocol. Reverse Transcription (RT) was performed with Maxima reverse transcriptase (ThermoFisher Scientific) and a poly-dT primer. The resulting cDNA was purified with Ampure XP Beads (Agencourt). For Quantitative PCR, 2% of the purified cDNA was amplified with Taqman Fast Advanced Mastermix and 3 Taqman probe sets, TTR (Assay ID: Hs00174914_m1), GAPDH (Assay ID: Hs02786624_g1), and PPIB (Assay ID: Hs00168719_m1). The assays were run on the QuantStudio 7 Flex Real Time PCR System according to the manufacturer's instructions (Life Technologies). Relative expression of TTR mRNA was calculated by normalizing to the endogenous controls (GAPDH and PPIB) individually, and then averaged.
The groups in FIG. 29 and Table 36 are identified by the gRNA ID used in each LNP preparation.
In a separate experiment, TTR mRNA knockdown was evaluated following treatment with LNPs comprising G000480, G000486, and G000502. The LNPs were formulated and PHH were cultured and treated with the LNPs, each as described in the experiment above in this Example with the exception that the cells were treated at a dose of 100 ng (with respect to the amount of mRNA cargo delivered).
as §1, with “(single treatment” for “(with biological triplicates”, “the High Capacity cDNA Reverse Transcription Kit” for “Maxima reverse transcriptase”, “according to the manufacturer's instructions.” for “and a poly-dT primer. The resulting cDNA was purified with Ampure XP Beads (Agencourt).”, “the” for “the purified”
The groups in FIG. 30 and Table 37 are identified by the gRNA ID used in each LNP preparation.

TTR = TTR editing dose response (EC50, maximum editing) in primary human hepatocytes treated with LNP formulated U-depleted Spy Cas9 mRNA and sgRNAs; format: cell-based; conditions: LNP formulated U-depleted Spy Cas9 mRNA and human specific sgRNAs, dose response
How it was run: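 Primary human hepatocytes, plated 24 h earlier, got LNPs carrying Cas9 mRNA and sgRNA, preincubated 5 min in medium with 6% cyno serum. Dosing was an 8-point 3-fold series from 300 ng mRNA. At 72 h, NGS read indel/substitution frequency at the target, giving EC50 and maximum percent editing.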

B1: G000572: TTR sgRNA modified sequence, Human, SEQ ID NO: 113; guide sequence of CR003385 (nucleic acid)
guide: mC*mC*mC*rCrUrArCrUrCrCrUrArUrUrCrCrArCrCrArGrUrUrUrUrArGrAmGmCmUmAmGmAmAmAmUmAmGmCrArArGrUrUrArArArArUrArArGrGrCrUrArGrUrCrCrGrUrUrArUrCrAmAmCmUmUmGmAmAmAmAmAmGmUmGmGmCmAmCmCmGmAmGmUmCmGmGmUmGmCmU*mU*mU*mU
In the case of B1, the “Avg % Knockdown (TTR mRNA)” value (TTR mRNA) is reported as 55.92% and the “Max Editing” value (TTR) is reported as 97.94%.

B2: G000493: TTR sgRNA modified sequence, Human, SEQ ID NO: 100; guide sequence of CR003368 (nucleic acid)
guide: mA*mA*mG*rUrGrCrCrUrUrCrCrArGrUrArArGrArUrUrGrUrUrUrUrArGrAmGmCmUmAmGmAmAmAmUmAmGmCrArArGrUrUrArArArArUrArArGrGrCrUrArGrUrCrCrGrUrUrArUrCrAmAmCmUmUmGmAmAmAmAmAmGmUmGmGmCmAmCmCmGmAmGmUmCmGmGmUmGmCmU*mU*mU*mU
For B2, the “Avg % Knockdown (TTR mRNA)” value (TTR mRNA) was 87.53% and the “Max Editing” value (TTR) was 63.95%.

B3: G000490: TTR sgRNA modified sequence, Human, SEQ ID NO: 97; guide sequence of CR003366 (nucleic acid)
guide: mA*mA*mA*rUrArGrArCrArCrCrArArArUrCrUrUrArCrGrUrUrUrUrArGrAmGmCmUmAmGmAmAmAmUmAmGmCrArArGrUrUrArArArArUrArArGrGrCrUrArGrUrCrCrGrUrUrArUrCrAmAmCmUmUmGmAmAmAmAmAmGmUmGmGmCmAmCmCmGmAmGmUmCmGmGmUmGmCmU*mU*mU*mU
For B3, the “Avg % Knockdown (TTR mRNA)” value (TTR mRNA) was 78.34% and the “Max Editing” value (TTR) was 94.16%.

B4: G000481: TTR sgRNA modified sequence, Human, SEQ ID NO: 88; guide sequence of CR003345 (nucleic acid)
guide: UCUAGAACUUUGACCAUCAGGUUUUAGAGCUAGAAAUAGCAAGUUAAAAUAAGGCUAGUCCGUUAUCAACUUGAAAAAGUGGCACCGAGUCGGUGCUUUU
modifications: sugars from the 5' end m3 r25 m12 r28 m32, backbone not given here; further chemistry not fully specified
With B4 the “Avg % Knockdown (TTR mRNA)” value (TTR mRNA) was 91.39% and the “Max Editing” value (TTR) was 87.05%.

B5: G000500: TTR sgRNA modified sequence, Human, SEQ ID NO: 107; guide sequence of CR003337 (nucleic acid)
guide: mC*mC*mA*rGrUrCrCrArGrCrArArGrGrCrArGrArGrGrGrUrUrUrUrArGrAmGmCmUmAmGmAmAmAmUmAmGmCrArArGrUrUrArArArArUrArArGrGrCrUrArGrUrCrCrGrUrUrArUrCrAmAmCmUmUmGmAmAmAmAmAmGmUmGmGmCmAmCmCmGmAmGmUmCmGmGmUmGmCmU*mU*mU*mU
For B5, the “Avg % Knockdown (TTR mRNA)” value (TTR mRNA) was 92.90% and the “Max Editing” value (TTR) was 88.70%.

B6: G000489: TTR sgRNA modified sequence, Human, SEQ ID NO: 96; guide sequence of CR003344 (nucleic acid)
guide: mU*mU*mU*rGrArCrCrArUrCrArGrArGrGrArCrArCrUrGrUrUrUrUrArGrAmGmCmUmAmGmAmAmAmUmAmGmCrArArGrUrUrArArArArUrArArGrGrCrUrArGrUrCrCrGrUrUrArUrCrAmAmCmUmUmGmAmAmAmAmAmGmUmGmGmCmAmCmCmGmAmGmUmCmGmGmUmGmCmU*mU*mU*mU
With B6 the “Avg % Knockdown (TTR mRNA)” value (TTR mRNA) was 91.85% and the “Max Editing” value (TTR) was 86.33%.

B7: G000568: TTR sgRNA modified sequence, Human, SEQ ID NO: 110; guide sequence of CR003391 (nucleic acid)
guide: mG*mG*mC*rUrGrUrCrGrUrCrArCrCrArArUrCrCrCrArGrUrUrUrUrArGrAmGmCmUmAmGmAmAmAmUmAmGmCrArArGrUrUrArArArArUrArArGrGrCrUrArGrUrCrCrGrUrUrArUrCrAmAmCmUmUmGmAmAmAmAmAmGmUmGmGmCmAmCmCmGmAmGmUmCmGmGmUmGmCmU*mU*mU*mU
For B7, the “Avg % Knockdown (TTR mRNA)” value (TTR mRNA) was 53.44% and the “Max Editing” value (TTR) was 95.72%.
